No end group written: not given here.
Molecular target: T1, WT NRG1 EGF-like domain
T1 construct: also called NRG1 EGF domain; neuregulin-1; source: endotoxin-free E. coli BL21 (DE3) pLysS Clear-coli, purified (Ni-NTA in 8M urea, re-folded)
T1 chain: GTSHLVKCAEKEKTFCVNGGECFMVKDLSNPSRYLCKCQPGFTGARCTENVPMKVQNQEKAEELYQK
Assay: ELISA; NRG1 (20 μg/mL in PBS) immobilised to wells, blocked with 0.1% BSA; peptides fused to GST in PBS/Tween20 (0.05%), 1 h at room temperature; HRP-conjugated anti-GST antibody; signals with scrambled β3 site 2 peptide subtracted
Settings: both partners purified

binding result: binds
B1: β3 specificity-determining loop (SDL) peptide fused to GST (peptide)
chain: DKPVSPYMYISPPEALENPCYDMKTTCLPMF
modifications: not fully specified (N-terminus); cysteine pairing not given here; also: fused to GST
notes: cDNA fragment subcloned into the BamHI/EcoRI site of pGEX2T; also called β3 SDL peptide; β3-SDL peptide; source: E. coli BL21, purified (Glutathione Sepharose)
